These results are taken from patent US20240327530A1 (ICHNOS SCIENCES, published 2024).

A word on the Kd: it is the free concentration of one partner at which half of the binding sites on the other are occupied at equilibrium, for simple one-to-one binding. As a reminder, the koff is a measure of how fast the partners let go of each other. The kon is a measure of how fast the partners come together.

Changes are numbered by the printed parent chain. Names and notes keep the numbering of the source.

The labels stand for the following.
B1: Anti-IL-1RAP-C3-MP01-A2 Fab (Fab, V domains shown)
VH: EVQLLESGGGLVQPGGSLRLSCAASGFTFAEYAMNWVRQAPGKGLEWVSAISYDGEGTLYADSVKGRFTISRDNSKNTLYLQMNSLRAEDTAVYYCARFRYYTAFDYWGQGTLVTVSS
VL: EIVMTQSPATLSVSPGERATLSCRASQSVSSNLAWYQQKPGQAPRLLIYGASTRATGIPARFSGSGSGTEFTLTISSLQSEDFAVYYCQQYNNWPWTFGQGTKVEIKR
B2: Anti-IL-1RAP-C3-MP01-D2 Fab (Fab, V domains shown)
VH: B1 VH with A30S, E31Q, Y32F, A33G, N35T
VL: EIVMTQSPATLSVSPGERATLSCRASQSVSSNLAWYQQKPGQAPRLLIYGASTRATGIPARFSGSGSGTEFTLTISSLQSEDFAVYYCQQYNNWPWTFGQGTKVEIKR
B3: Anti-IL-1RAP-C3-MP02-F6 Fab (Fab, V domains shown)
VH: B1 VH with A30P, E31D, A33P, M34L, N35G
VL: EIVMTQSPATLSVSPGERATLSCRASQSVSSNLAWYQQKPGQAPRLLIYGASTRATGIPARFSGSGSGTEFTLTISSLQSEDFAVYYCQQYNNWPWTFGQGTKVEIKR
B4: Anti-IL-1RAP-C3-MP01-G10 Fab (Fab, V domains shown)
VH: B1 VH with A30S, E31H, A33G, N35S
VL: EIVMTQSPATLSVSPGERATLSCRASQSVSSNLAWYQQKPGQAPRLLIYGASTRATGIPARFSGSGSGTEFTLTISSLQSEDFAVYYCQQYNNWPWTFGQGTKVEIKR
B5: Anti-IL-1RAP-C3-MP01-A3 Fab (Fab, V domains shown)
VH: B1 VH with T28I, A30S, E31H, A33G, N35S
VL: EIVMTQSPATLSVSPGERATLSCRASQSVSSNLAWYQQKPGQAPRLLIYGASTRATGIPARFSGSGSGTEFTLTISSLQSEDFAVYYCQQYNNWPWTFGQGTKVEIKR
notes: also called Fab clone anti-IL-1RAP-C3-A3
B6: Anti-IL-1RAP-C3-MP02-B8 Fab (Fab, V domains shown)
VH: B1 VH with A30E, E31H, Y32S, A33S, M34A, N35G
VL: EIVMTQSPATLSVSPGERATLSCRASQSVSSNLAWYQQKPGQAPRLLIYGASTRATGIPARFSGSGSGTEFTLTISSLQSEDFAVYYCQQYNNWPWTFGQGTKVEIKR
B7: Anti-IL-1RAP-C3-MP01-B7 Fab (Fab, V domains shown)
VH: B1 VH with F29L, A30S, E31G, Y32F, A33S, N35S
VL: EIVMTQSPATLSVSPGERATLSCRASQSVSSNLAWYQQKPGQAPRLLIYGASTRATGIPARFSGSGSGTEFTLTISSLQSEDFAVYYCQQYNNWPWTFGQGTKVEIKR
B8: Anti-IL-1RAP-C3-MP02-G2 Fab (Fab, V domains shown)
VH: B1 VH with F29Y, A30D, E31V, Y32A, A33P, N35G
VL: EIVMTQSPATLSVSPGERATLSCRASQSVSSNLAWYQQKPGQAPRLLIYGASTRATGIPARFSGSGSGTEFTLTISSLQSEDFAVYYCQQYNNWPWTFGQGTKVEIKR
B9: Anti-IL-1RAP-C3-MP01-B5 Fab (Fab, V domains shown)
VH: B1 VH with T28I, A30S, E31T, A33G, N35G
VL: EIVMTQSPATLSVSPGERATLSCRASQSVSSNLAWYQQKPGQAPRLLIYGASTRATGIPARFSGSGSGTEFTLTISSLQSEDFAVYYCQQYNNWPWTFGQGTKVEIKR
B10: Anti-IL-1RAP-C3-MP01-F5 Fab (Fab, V domains shown)
VH: B1 VH with T28P, F29L, A30S, E31N, A33G, N35S
VL: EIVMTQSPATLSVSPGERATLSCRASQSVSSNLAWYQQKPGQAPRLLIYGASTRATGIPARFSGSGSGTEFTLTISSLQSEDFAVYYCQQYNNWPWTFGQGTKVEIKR
B11: Anti-IL-1RAP-C8-recC IgG1 LALA (antibody, V domains shown)
VH: QVQLVQSGAEVKKPGSSVKVSCKASGSPAEPYAIQWVRQAPGQGLEWMGYIIPSLGGYDYAQKFQGRVTITADESTSTAYMELSSLRSEDTAVYYCARGQTLYDSGRQFDIWGQGTLVTVSS
VL: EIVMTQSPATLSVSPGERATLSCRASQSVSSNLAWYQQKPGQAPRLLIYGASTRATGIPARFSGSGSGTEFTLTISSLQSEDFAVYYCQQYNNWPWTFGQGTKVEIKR
notes: Human IgG1 with L234A/L235A (EU); whether it is the full heavy chain or only VH is not clear; also called ISB 880-C8-recC
B12: Anti-IL-1RAP-C8-RecC-AA-IgG1LALA (antibody, V domains shown)
VH: B11 VH with D104A, S105A
VL: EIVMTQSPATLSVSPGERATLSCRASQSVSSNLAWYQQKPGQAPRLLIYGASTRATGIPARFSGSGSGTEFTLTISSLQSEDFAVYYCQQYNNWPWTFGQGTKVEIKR
notes: Human IgG1 LALA; also called ISB 880-C8-recC-AA
B13: Anti-IL-1RAP-C8-RecC-AS-IgG1LALA (antibody, V domains shown)
VH: B11 VH with D104A
VL: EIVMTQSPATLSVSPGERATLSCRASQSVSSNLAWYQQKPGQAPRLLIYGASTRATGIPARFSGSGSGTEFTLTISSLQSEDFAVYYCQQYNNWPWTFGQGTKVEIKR
notes: Human IgG1 LALA; D100/S100a (Kabat) of RecC replaced by AS; also called ISB 880-C8-recC-AS
B14: Anti-IL-1RAP-C8-RecC-DA-IgG1LALA (antibody, V domains shown)
VH: B11 VH with S105A
VL: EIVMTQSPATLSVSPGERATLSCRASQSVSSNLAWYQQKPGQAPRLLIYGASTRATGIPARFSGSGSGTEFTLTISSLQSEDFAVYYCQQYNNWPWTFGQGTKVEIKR
notes: Human IgG1 LALA; D100/S100a (Kabat) of RecC replaced by DA; also called ISB 880-C8-recC-DA
B15: Anti-IL-1RAP-C8-RecC-ET-IgG1LALA (antibody, V domains shown)
VH: B11 VH with D104E, S105T
VL: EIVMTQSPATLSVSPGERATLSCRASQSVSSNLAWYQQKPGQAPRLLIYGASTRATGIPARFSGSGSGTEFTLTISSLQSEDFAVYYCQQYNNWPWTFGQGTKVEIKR
notes: Human IgG1 LALA; also called ISB 880-C8-recC-ET

One assay has as its target T1, Recombinant mouse IL-1RAP Fc fusion protein (Sino Biologicals, catalog no. 52657-M02H) (mouse, UniProt Q61730 21-350).
T1 construct: Bought; not shown: Fc part of the bought fusion protein
T1 sequence: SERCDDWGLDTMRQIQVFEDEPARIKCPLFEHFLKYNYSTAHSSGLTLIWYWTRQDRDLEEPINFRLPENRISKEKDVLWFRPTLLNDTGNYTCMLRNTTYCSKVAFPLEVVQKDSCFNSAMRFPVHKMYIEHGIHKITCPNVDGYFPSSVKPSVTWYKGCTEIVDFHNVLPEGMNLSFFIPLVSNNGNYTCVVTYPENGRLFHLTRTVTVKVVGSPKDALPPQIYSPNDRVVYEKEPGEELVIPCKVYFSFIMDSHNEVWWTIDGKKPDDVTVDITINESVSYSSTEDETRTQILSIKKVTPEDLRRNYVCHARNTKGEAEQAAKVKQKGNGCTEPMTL
Description: SPR, mouse IL-1RAP-Fc captured, Fab as analyte (0.04 to 5 nM). The procedure:
Affinities of the Fab fragments to mouse IL-1RAP were measured as described in Example 1, with the following modifications. Measurements were performed on Series S CM5 sensor chips (BIACORE™ T200, BIACORE™, GE […]®, catalog no. BR100530) coupled with anti-human IgG Fc (BIACORE™, GE […]®, catalog no. BR100839) using a commercial amine coupling kit (BIACORE™, GE […]®, catalog no. BR100050). SPR measurements were performed with commercially available recombinant mouse IL-1RAP Fc fusion protein (Sino Biologicals, catalog no. 52657-M02H). The affinities to mouse IL-1RAP were assessed by immobilizing mouse IL-1RAP-Fc and using Fab fragments as analyte. Around 60 RUs of mouse IL-1RAP Fc fusion protein were captured on fc2 of a Series S CM5 sensor chip coupled with anti-human IgG Fc. Fab fragments were injected in single cycle kinetic at different concentrations ranging from 0.04 to 5 nM, in HBS-EP+ buffer (BIACORE™, GE […]®, catalog no. BR100669) at a flow rate of 30 μl/min for 3 min on fc1 and fc2 (fc1 being used as reference). Dissociation was monitored for 10 min.
Background: In SPR one partner is held on a chip, and binding of the other changes the refractive index at the surface.
On to B1, for which the Kd is 0.68 nM.
Same read-out and setting: for B2 the value was 0.22 nM.
On the same count and under the same terms, for B3 the value was 0.26 nM.
The same measure, in the same setting: as for B4, the figure is 0.21 nM.
For the molecule B5, the Kd stood at 0.14 nM.
Still for that read-out and setting: as for B6, the figure is 0.49 nM; as for B7, 0.17 nM.
The same measure, in the same setting: as for B8, the figure is 0.32 nM; as for B9, 0.21 nM; as for B10, 0.28 nM.

A further assay concerns the target T2, Recombinant cynomolgus monkey IL-1RAP-ECD(S21-E359)-avi-his protein (cynomolgus monkey, UniProt P59822 21-359 (rhesus entry)).
T2 construct: also called cyno IL-1RAP-ECD-Avi-His; recombinant cynomolgus monkey IL-1RAP-avi-his protein
T2 sequence: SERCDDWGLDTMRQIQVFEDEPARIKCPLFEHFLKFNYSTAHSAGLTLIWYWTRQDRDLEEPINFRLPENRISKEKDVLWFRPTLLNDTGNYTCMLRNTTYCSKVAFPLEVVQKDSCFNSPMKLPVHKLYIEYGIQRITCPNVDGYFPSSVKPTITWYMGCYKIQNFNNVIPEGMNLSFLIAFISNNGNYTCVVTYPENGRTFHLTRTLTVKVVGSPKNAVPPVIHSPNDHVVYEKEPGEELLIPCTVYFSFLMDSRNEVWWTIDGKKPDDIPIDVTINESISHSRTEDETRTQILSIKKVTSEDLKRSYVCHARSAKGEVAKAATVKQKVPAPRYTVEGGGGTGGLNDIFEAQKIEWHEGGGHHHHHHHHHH
In words: SPR, IgG1 LALA captured by anti-human Fc, cyno IL-1RAP-avi-his as analyte, 1:1 fit. Here is the method: (§1) Surface plasmon resonance (SPR) was used to measure the binding affinities of the human IgG1 LALA molecules for human and cynomolgus monkey IL-1RAP. Affinities were measured on a BIACORE™ T200 instrument (BIACORE™, GE […]®) at 25° C. and analyzed with the BIACORE™ T200 Evaluation Software (v3.1). Measurements were performed on Series S CM5 sensor chips (BIACORE™ T200, BIACORE™, GE […]®, catalog no. BR100530) coupled with anti-human IgG Fc (BIACORE™, GE […]®, catalog no. BR100839) using a commercial amine coupling kit (BIACORE™, GE […]®, catalog no. BR100050). SPR measurements were performed with recombinant human IL-1RAP-avi-his protein produced in house (SEQ ID NO. 1) or recombinant cynomolgus monkey IL-1RAP-avi-his protein produced in house (SEQ ID NO. 2). The affinities to human and cynomolgus monkey IL-1RAP were assessed by immobilizing anti-IL-1RAP IgG1 LALA molecules and using IL-1RAP proteins as analyte. Around 150 RU of human IgG1 LALA were captured on fc2 of a Series S CM5 sensor chip coupled with anti-human IgG Fc. Recombinant human IL-1RAP-avi-his protein or recombinant cynomolgus monkey IL-1RAP-avi-his protein was injected in multi cycle kinetic at different concentrations ranging from 0.14 to 100 nM, in HBS-EP+ buffer (BIACORE™, GE […]®, catalog no. BR100669) at a flow rate of 30 μl/min for 3 min on fc1 and fc2 (fc1 being used as reference). Dissociation was monitored for 12 min. After each cycle, the surface was regenerated with 60 μl of regeneration solution provided with anti-human IgG Fc capture kit (BIACORE™, GE […]®, catalog no. BR100839). Experimental data were processed using the 1:1 Langmuir kinetic fitting model. Measurements included zero-concentration samples for referencing. Chi², U- and residual values were used to evaluate the quality of a fit between the experimental data and individual binding models.
With B11, the Kd was found to be 0.276 nM, the koff is 0.000236 s⁻¹ and the kon is 854000 M⁻¹ s⁻¹.
The matching figures for B12: 0.24 nM, 0.000187 s⁻¹ and 777000 M⁻¹ s⁻¹.
In the same order, the values of B13 are 0.254 nM, 0.00016 s⁻¹ and 628000 M⁻¹ s⁻¹.
On to B14, for which the Kd was 0.145 nM, the koff amounted to 0.00019 s⁻¹ and the kon was found to be 1.31e+06 M⁻¹ s⁻¹.
The matching figures for B15: 0.336 nM, 0.000308 s⁻¹ and 916000 M⁻¹ s⁻¹.

The target of a further assay is T3, Recombinant human IL-1RAP-ECD(S21-E359)-avi-his protein (human, UniProt Q9NPH3 21-359).
T3 construct: Biotinylated where loaded on streptavidin; also called human IL-1RAP-ECD-Avi-His; recombinant human IL-1RAP-avi-his protein
T3 sequence: T2 sequence with F183L, P273T, T326K
Description: SPR, IgG1 LALA captured by anti-human Fc, human IL-1RAP-avi-his as analyte, 1:1 fit. Here is the method:
as §1
Take B11: the Kd was found to be 0.237 nM, the dissociation rate constant (koff) was 0.000199 s⁻¹ and the kon was 840000 M⁻¹ s⁻¹.
In the same order, the values of B12 are 0.267 nM, 0.000169 s⁻¹ and 634000 M⁻¹ s⁻¹.
The matching figures for B13: 0.287 nM, 0.000161 s⁻¹ and 561000 M⁻¹ s⁻¹.
B14: the Kd was determined as 0.14 nM, the koff amounted to 0.000162 s⁻¹ and the kon worked out at 1.16e+06 M⁻¹ s⁻¹.
In the same order, the values of B15 are 0.278 nM, 0.000253 s⁻¹ and 916000 M⁻¹ s⁻¹.
